Test results as given in patent US20190218304A1 (INNATE PHARMA, published 2019).

Experiments:
[1] = biological target: T1, human CD39 expressed on cells (human, UniProt P49961 1-510); test: flow cytometry on Hek-293T cells transfected with wild-type CD39 (unstained cells, US: 10,3) [panel WT]
T1 construct: On CHO transfectants, HEK-293T transfectants (wild type), Ramos lymphoma cells or monocyte-derived dendritic cells, as named under assay; also called huCD39; CHO-huCD39
T1 sequence: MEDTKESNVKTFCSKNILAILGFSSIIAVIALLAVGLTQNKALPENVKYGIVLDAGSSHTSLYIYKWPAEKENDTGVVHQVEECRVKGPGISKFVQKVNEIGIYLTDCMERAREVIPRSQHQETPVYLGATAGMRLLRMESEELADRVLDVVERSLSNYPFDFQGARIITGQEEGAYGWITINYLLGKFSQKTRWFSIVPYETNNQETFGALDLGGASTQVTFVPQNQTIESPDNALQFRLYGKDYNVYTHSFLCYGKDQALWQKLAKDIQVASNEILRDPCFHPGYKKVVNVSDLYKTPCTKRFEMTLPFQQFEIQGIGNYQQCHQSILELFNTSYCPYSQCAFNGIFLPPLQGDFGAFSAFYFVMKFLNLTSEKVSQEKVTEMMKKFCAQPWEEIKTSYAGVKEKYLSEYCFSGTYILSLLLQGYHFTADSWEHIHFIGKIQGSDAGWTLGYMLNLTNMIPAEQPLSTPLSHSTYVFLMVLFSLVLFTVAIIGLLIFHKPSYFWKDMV

[2] = biological target: T2, Human CD39-L4 (human, UniProt O75356 25-428); test: ELISA on coated recombinant human CD39-L4 [panel huCD39 L4]
T2 construct: Recombinant protein coated in ELISA; also called NTPDase5; ENTPD5
T2 sequence: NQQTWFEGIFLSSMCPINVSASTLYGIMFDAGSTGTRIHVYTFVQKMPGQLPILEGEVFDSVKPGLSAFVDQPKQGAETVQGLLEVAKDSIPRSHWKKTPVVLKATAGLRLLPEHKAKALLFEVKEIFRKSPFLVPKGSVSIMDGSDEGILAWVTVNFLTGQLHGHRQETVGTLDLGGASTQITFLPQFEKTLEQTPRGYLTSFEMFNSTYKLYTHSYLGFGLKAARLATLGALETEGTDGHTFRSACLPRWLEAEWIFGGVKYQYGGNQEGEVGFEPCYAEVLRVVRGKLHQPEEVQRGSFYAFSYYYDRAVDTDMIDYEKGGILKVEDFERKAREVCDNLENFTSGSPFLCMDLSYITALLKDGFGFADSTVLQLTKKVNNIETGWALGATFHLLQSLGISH
Protocol: (§1) Wells were washed in TBS Tween 20, and further saturated 2H at RT in TBS Blocking buffer. Dose range concentration of primary antibody was incubated in TBS blocking buffer for 2 h at RT. Wells were washed in TBS Tween 20. […] Optical density was measured on Enspire™ at OD=450.

[3] = biological target: T1, human CD39 expressed on cells; test: cell-based or functional assay
[4] = biological target: T3, recombinant human CD39-M2 extracellular domain protein (human, UniProt P49961 38-478); test: cell-based or functional assay
T3 sequence: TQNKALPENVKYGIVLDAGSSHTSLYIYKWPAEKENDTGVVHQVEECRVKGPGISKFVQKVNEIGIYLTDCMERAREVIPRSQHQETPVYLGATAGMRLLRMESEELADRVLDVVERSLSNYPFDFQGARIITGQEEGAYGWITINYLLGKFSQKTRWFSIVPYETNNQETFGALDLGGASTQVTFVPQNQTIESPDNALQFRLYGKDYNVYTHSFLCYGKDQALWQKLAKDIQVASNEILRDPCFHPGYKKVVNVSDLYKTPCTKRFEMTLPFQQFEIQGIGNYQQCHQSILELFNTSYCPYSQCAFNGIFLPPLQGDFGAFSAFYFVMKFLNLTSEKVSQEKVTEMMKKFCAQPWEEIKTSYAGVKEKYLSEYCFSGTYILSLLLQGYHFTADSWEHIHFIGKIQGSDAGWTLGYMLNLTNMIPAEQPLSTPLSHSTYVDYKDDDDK

[5] = biological target: T1, human CD39 expressed on cells; test: flow cytometry titration on Ramos lymphoma cells, second experiment; Ramos cells, second set of experiments
Protocol: Cells were incubated with various concentration of unlabeled anti-CD39 antibody from 30 μg/ml to 5×10⁻⁴ μg/ml, for 30 minutes at 4° C. After washes, cells were incubated with Goat anti-mouse H+L labeled secondary antibody for 30 min at 4° C.

[6] = biological target: T4, Human CD39-L3 (human, UniProt O75355 44-485, limits assumed); test: ELISA on coated recombinant human CD39-L3 [panel huCD39 L3]
T4 construct: Recombinant protein coated in ELISA; also called NTPDase3; ENTPD3
T4 sequence: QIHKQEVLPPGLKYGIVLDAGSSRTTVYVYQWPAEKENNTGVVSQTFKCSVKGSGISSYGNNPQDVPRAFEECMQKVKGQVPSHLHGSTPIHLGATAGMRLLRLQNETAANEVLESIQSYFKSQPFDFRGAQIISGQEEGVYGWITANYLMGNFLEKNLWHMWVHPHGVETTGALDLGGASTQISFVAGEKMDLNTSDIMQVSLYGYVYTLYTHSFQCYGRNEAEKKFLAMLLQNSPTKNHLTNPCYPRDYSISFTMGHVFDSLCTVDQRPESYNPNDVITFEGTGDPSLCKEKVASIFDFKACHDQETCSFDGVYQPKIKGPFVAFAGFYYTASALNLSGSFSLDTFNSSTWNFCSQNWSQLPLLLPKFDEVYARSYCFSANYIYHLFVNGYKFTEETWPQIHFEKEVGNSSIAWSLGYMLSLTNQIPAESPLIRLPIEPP
Protocol: as §1

Median : Comp-Alexa Fluor 647-A [1]: 3720
binding result [2]: no binding
IC50 (inhibition of 50% of the enzymatic activity of CD39 expressed by 50,000 Ramos cells) [3]: 0.05 µg/mL
IC50, inhibition of the ATPase activity of soluble CD39 protein [4]: 0.003 µg/mL
EC50 [5]: 0.19 µg/mL
binding result [6]: no binding
B1: antibody I-394 (antibody, human IgG1, kappa, V domains shown)
VH: EVQLQQSGPELVKPGASVKMSCKASGYTFTDYNMHWVKQSHGRTLEWIGYIVPLNGGSTFNQKFKGRATLTVNTSSRTAYMELRSLTSEDSAAYYCARGGTRFAYWGQGTLVTVSA
VL: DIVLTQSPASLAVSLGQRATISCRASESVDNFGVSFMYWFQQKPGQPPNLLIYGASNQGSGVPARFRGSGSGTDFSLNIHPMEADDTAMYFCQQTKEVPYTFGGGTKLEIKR
notes: The hybridoma-derived mouse form was used in early screening
